The test concerns the target T1, recombinant Rab11a (UniProt P62491 1-216).
T1 sequence (looked up): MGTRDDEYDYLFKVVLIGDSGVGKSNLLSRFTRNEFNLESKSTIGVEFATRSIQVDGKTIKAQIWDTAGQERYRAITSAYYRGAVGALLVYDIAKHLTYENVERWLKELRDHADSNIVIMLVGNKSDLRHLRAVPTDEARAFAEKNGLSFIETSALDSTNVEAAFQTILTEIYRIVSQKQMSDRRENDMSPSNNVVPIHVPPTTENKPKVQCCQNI
As to the kind of experiment: pull-down.

B1: Rip11/FIP5(490-652) (domain or fragment, UniProt Q9BXF6 490-652, looked up)
chain: ILGASPHHSSSGEEKAKSSWFGLREAKDPTQKPSPHPVKPLSAAPVEGSPDRKQSRSSLSIALSSGLEKLKTVTSGSIQPVTQAPQAGQMVDTKRLKDSAVLDQSAKYYHLTHDELISLLLQRERELSQRDEHVQELESYIDRLLVRIMETSPTLLQIPPGPP
In the case of B1, the binding result is “binds”.

(Values after PMC4365997 (Journal of cell science, 2008).)
